Source: patent US20020142976

Tested on: IDH22

Sequence of ATR (chain, as listed by the source): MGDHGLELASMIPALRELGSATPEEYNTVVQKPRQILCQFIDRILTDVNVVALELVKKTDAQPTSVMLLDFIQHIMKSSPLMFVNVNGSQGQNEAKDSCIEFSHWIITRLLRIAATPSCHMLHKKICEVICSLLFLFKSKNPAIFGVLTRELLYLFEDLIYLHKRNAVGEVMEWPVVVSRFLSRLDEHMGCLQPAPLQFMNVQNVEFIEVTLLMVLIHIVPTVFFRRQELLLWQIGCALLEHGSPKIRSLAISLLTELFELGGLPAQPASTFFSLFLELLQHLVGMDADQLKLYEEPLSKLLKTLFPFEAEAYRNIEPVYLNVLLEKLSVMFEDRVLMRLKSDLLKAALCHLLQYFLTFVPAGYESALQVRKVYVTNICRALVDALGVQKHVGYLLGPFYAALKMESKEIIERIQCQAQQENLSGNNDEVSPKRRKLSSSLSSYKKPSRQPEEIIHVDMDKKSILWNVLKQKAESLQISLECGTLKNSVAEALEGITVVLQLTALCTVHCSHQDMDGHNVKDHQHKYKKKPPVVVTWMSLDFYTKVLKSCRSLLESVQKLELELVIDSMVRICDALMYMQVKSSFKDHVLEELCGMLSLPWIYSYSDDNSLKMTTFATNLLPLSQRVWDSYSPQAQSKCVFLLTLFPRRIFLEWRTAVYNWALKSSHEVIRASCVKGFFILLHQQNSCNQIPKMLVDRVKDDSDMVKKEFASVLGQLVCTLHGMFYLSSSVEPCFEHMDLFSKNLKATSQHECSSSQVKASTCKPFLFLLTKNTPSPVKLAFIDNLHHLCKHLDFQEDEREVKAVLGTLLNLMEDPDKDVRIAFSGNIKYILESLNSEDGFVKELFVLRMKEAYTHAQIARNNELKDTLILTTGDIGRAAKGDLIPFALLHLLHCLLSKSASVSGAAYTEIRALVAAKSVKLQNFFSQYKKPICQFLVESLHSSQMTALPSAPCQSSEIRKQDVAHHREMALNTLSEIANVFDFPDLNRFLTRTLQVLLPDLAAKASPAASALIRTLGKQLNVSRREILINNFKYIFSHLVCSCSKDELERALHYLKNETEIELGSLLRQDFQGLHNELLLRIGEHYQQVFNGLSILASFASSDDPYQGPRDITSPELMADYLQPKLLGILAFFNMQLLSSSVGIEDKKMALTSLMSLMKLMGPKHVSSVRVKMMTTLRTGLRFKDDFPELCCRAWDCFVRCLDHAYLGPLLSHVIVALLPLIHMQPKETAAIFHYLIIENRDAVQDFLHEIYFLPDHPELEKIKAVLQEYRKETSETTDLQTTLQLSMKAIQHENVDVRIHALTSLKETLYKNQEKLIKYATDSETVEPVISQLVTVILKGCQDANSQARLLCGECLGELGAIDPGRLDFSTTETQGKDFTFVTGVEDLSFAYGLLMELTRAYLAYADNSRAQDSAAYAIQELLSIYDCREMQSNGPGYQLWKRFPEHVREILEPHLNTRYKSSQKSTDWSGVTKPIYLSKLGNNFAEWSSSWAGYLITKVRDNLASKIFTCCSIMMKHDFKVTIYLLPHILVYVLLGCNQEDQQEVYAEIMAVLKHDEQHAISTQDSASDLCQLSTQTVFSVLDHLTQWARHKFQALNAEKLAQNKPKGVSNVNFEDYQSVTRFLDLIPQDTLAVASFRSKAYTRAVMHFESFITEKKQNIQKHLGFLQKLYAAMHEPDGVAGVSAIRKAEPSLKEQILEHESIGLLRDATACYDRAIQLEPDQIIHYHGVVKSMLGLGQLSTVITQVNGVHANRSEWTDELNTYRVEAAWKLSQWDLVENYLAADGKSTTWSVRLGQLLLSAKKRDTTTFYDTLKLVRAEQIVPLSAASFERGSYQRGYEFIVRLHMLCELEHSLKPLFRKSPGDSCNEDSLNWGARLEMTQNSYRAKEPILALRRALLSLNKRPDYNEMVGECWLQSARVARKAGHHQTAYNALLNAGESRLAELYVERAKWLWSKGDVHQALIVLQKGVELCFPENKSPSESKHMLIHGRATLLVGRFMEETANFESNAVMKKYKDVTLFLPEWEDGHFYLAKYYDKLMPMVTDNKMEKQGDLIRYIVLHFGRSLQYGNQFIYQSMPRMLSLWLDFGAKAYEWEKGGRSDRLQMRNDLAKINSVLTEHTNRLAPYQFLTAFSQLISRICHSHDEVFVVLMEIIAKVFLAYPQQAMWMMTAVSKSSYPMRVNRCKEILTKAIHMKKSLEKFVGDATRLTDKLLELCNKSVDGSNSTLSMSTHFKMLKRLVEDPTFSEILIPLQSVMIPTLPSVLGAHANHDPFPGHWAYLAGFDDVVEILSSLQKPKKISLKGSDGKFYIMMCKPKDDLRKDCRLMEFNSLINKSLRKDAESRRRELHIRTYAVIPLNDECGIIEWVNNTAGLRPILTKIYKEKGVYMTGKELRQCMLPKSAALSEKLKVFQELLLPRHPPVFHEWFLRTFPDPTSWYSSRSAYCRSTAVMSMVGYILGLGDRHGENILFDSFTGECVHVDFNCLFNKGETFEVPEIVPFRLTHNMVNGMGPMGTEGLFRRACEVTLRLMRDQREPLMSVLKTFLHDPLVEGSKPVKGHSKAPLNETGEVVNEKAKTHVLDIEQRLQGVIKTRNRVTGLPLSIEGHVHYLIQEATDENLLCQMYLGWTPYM

ATR
phosphorylation of peptide substrate (32P kinase assay, plate-captured ATR): ATR phosphorylated IDH22
